We go through seven molecules from doi:10.1101/2024.08.28.609967 (bioRxiv, 2024).

The chains are these.
B4: GFP-FIP200 C-terminal region (CTR) (residues 1429–1591) (domain or fragment, UniProt Q8TDY2-2 1429-1591, looked up)
chain: ADEGRVDSAMETSMMSVQENIHMLSEEKQRIMLLERTLQLKEEENKRLNQRLMSQSMSSVSSRHSEKIAIRDFQVGDLVLIILDERHDNYVLFTVSPTLYFLHSESLPALDLKPASGASRRPWVLGKVMEKEYCQAKKAQNRFKVPLGTKFYRVKAVSWNKKV
notes: FIP200 (RB1CC1), C-terminal region with the Claw domain and a portion of the coiled-coil, residues 1429-1591; also called GFP-tagged FIP200-CTR; GFP-FIP200(CTR); source: E. coli Rosetta pLysS, purified (His-Trap, TEV cleavage, SEC); not shown: His6, N-terminal, cleaved; GFP, N-terminal, kept

Conditions in all cases: both partners purified
One assay addresses T1, GST-WIPI3 (UniProt Q5MNZ6 1-344).
T1 construct: WIPI3 (WDR45B); Addgene numbers are tied to WIPI1/2/3/4 by their order in the list; also called GST-tagged WIPI3; GST-TEV-WIPI3; source: FreeStyle HEK293F cells, transfected, purified (glutathione beads, SEC); not shown: GST, N-terminal, kept
Description: microscopy-based bead assay; glutathione beads coated with GST-tagged WIPI2d or WIPI3 (5 uM), mCherry-tagged ATG13 constructs as prey; 25 mM Tris-HCl pH 7.4, 150 mM NaCl, 1 mM DTT; confocal imaging.

The target in a further assay is T2, mCherry-WIPI3 (UniProt Q5MNZ6 1-344).
T2 construct: also called mCherry-tagged WIPI3; source: E. coli Rosetta pLysS, purified (His-Trap, SEC); not shown: mCherry, N-terminal, kept
Put plainly: microscopy-based bead assay; GFP-trap agarose beads coated with GFP-tagged bait (ULK1 complex, ATG13/101, FIP200, ULK1 K46I, ATG13 IDR and its fragments or variants; 5 uM), mCherry-tagged WIPI proteins as prey; 25 mM Tris-HCl pH 7.4, 150 mM NaCl, 1 mM DTT; confocal imaging.

A further assay deals with T3, BCL2L13(1–465aa)-GST (human, UniProt Q9BXK5 1-465).
T3 construct: BCL2L13, cytosol-exposed domain, residues 1-465; also called BCL2L13-GST; source: E. coli Rosetta pLysS, purified (glutathione beads, SEC); not shown: GST, C-terminal, kept
Description: microscopy-based bead assay; glutathione beads coated with GST-tagged cargo receptors (5 uM), GFP-FIP200 CTR (1429-1591) as prey, 30 min; 25 mM Tris-HCl pH 7.4, 150 mM NaCl, 1 mM DTT; confocal imaging.

Another assay has as its target T4, GST-TEX264 (28–313aa) (human, UniProt Q9Y6I9 28-313).
T4 construct: TEX264, cytosol-exposed domain, residues 28-313, synthetic gene; also called GST-tagged TEX264; source: E. coli Rosetta pLysS, purified (glutathione beads, SEC); not shown: GST, N-terminal, kept
T4 sequence (looked up): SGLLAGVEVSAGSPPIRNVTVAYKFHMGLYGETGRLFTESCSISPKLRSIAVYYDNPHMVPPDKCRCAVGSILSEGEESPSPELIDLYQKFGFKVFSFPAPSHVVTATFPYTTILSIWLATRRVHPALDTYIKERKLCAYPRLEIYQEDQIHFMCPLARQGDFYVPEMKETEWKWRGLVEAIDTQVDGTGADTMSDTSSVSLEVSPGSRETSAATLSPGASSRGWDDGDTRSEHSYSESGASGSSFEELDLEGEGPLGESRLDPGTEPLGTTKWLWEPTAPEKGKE
Described as above.

For a further assay, the target named is T5, GST-FAM134C (250–466aa) (human, UniProt Q86VR2 250-466).
T5 construct: FAM134C, cytosol-exposed domain, residues 250-466, synthetic gene; also called GST-tagged FAM134C; source: E. coli Rosetta pLysS, purified (glutathione beads, SEC); not shown: GST, N-terminal, kept
Described as above.

In the next assay the target is T6, CCPG1-GST (1–212aa) (human, UniProt Q9ULG6 1-212).
T6 construct: CCPG1, cytosol-exposed domain, residues 1-212, synthetic gene; also called GST-tagged CCPG1; source: E. coli Rosetta pLysS, purified (glutathione beads, SEC); not shown: GST, C-terminal, kept
T6 sequence (looked up): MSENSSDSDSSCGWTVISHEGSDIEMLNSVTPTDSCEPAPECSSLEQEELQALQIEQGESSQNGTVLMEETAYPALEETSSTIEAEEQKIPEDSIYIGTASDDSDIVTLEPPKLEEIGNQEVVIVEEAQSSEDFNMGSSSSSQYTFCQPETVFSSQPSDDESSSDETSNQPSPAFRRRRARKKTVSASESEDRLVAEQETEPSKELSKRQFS
The assay is described as above.

The target in the next assay is T7, FKBP8-GST (1–391aa) (human, UniProt Q14318 1-391).
T7 construct: FKBP8, cytosol-exposed domain, residues 1-391, synthetic gene; also called GST-tagged FKBP8; source: E. coli Rosetta pLysS, purified (glutathione beads, SEC); not shown: GST, C-terminal, kept
Described as above.

Assay [1] concerns the target B4. Description: microscopy-based bead assay; as a2 (GFP-FIP200 CTR prey) with kinases TBK1, MBP-ULK1, CK2 or Src (Y530F) and 10 mM MgCl2, 100 uM ATP.

T2 sequence (Q5MNZ6 whole entry): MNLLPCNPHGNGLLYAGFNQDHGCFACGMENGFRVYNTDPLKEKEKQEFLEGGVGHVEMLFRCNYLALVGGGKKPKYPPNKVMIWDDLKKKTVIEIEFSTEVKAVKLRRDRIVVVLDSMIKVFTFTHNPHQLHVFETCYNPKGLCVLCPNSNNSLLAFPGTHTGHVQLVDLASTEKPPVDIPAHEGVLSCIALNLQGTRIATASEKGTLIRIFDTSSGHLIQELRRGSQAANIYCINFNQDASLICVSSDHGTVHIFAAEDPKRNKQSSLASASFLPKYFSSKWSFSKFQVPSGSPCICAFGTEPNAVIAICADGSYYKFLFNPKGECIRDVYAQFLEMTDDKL
T5 sequence (Q86VR2 250-466): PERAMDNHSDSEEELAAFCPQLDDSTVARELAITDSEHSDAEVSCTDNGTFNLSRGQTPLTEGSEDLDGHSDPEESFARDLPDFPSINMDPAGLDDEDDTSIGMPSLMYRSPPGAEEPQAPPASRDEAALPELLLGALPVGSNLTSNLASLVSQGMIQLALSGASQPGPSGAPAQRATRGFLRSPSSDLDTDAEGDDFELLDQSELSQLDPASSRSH
T7 sequence (Q14318 1-391): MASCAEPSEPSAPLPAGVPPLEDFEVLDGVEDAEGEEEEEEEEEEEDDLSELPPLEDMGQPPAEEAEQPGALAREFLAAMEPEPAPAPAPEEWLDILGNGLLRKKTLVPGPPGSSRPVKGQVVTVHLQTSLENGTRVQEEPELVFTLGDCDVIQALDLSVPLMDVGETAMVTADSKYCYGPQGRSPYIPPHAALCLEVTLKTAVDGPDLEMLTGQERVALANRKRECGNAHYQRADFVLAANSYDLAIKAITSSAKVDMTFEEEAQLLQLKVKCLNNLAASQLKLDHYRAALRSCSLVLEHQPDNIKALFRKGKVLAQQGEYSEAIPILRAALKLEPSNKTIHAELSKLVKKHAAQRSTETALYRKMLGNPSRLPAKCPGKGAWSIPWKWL
T1 sequence (Q5MNZ6 whole entry): as the sequence (Q5MNZ6 whole entry) above
T3 sequence (Q9BXK5 1-465): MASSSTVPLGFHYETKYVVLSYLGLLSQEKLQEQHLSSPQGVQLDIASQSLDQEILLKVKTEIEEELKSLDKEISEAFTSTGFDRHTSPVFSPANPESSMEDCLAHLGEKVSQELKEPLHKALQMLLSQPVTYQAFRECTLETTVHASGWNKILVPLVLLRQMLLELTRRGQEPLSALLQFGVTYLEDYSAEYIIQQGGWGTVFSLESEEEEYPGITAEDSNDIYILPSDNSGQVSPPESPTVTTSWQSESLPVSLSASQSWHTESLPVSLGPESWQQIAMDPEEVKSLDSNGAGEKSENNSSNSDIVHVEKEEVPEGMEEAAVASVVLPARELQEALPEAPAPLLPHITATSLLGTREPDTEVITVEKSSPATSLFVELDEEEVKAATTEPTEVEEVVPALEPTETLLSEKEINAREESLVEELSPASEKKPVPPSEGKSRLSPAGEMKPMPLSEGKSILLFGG

B1: mCherry-tagged ATG13 IDR (191–517aa) (domain or fragment, UniProt O75143 191-517, looked up)
chain: INLAFMSTRQFERTPPIMGIIIDHFVDRPYPSSSPMHPCNYRTAGEDTGVIYPSVEDSQEVCTTSFSTSPPSQLSSSRLSYQPAALGVGSADLAYPVVFAAGLNATHPHQLMVPGKEGGVPLAPNQPVHGTQADQERLATCTPSDRTHCAATPSSSEDTETVSNSSEGRASPHDVLETIFVRKVGAFVNKPINQVTLTSLDIPFAMFAPKNLELEDTDPMVNPPDSPETESPLQGSLHSDGSSGGSSGNTHDDFVMIDFKPAFSKDDILPMDLGTFYREFQNPPQLSSLSIDIGAQSMAEDLDSLPEKLAVHEKNVREFDAFVETLQ
notes: also called mCh-IDR; source: E. coli Rosetta pLysS, purified (His-Trap, SEC); not shown: mCherry, N-terminal, kept
Consider B1, for which, in the assay with GST-WIPI3, the binding result is “binds”.

B2: GFP-tagged ATG13 IDR (191–517aa) (domain or fragment, UniProt O75143 191-517, looked up)
chain: INLAFMSTRQFERTPPIMGIIIDHFVDRPYPSSSPMHPCNYRTAGEDTGVIYPSVEDSQEVCTTSFSTSPPSQLSSSRLSYQPAALGVGSADLAYPVVFAAGLNATHPHQLMVPGKEGGVPLAPNQPVHGTQADQERLATCTPSDRTHCAATPSSSEDTETVSNSSEGRASPHDVLETIFVRKVGAFVNKPINQVTLTSLDIPFAMFAPKNLELEDTDPMVNPPDSPETESPLQGSLHSDGSSGGSSGNTHDDFVMIDFKPAFSKDDILPMDLGTFYREFQNPPQLSSLSIDIGAQSMAEDLDSLPEKLAVHEKNVREFDAFVETLQ
notes: Addgene numbers of the GFP-ATG13 constructs are tied to the ranges by their order in the list; also called ATG13 IDR wild-type (WT); source: E. coli Rosetta pLysS, purified (glutathione beads, TEV cleavage, SEC); not shown: GST, N-terminal, cleaved; EGFP, N-terminal, kept
For B2, in the assay with mCherry-WIPI3, the binding result is “binds”.

B3: GFP-tagged ATG13 (206–230) (peptide, UniProt O75143 206-230, looked up)
chain: PIMGIIIDHFVDRPYPSSSPMHPCN
notes: ATG13 residues 206-230; also called ATG13 IDR fragment (206–230aa); source: E. coli Rosetta pLysS, purified (glutathione beads, TEV cleavage, SEC on S75); not shown: GST, N-terminal, cleaved; EGFP, N-terminal, kept
As to B3, the binding result with mCherry-WIPI3 is “binds”.
As to B4, the binding result in the assay with BCL2L13(1–465aa)-GST, with GST-TEX264 (28–313aa), in the assay with GST-FAM134C (250–466aa), with CCPG1-GST (1–212aa) and with FKBP8-GST (1–391aa) was “binds” throughout.

B5: GFP-tagged ATG13 IDR (Δ191–205aa) (domain or fragment, UniProt O75143 205-517, looked up)
chain: PPIMGIIIDHFVDRPYPSSSPMHPCNYRTAGEDTGVIYPSVEDSQEVCTTSFSTSPPSQLSSSRLSYQPAALGVGSADLAYPVVFAAGLNATHPHQLMVPGKEGGVPLAPNQPVHGTQADQERLATCTPSDRTHCAATPSSSEDTETVSNSSEGRASPHDVLETIFVRKVGAFVNKPINQVTLTSLDIPFAMFAPKNLELEDTDPMVNPPDSPETESPLQGSLHSDGSSGGSSGNTHDDFVMIDFKPAFSKDDILPMDLGTFYREFQNPPQLSSLSIDIGAQSMAEDLDSLPEKLAVHEKNVREFDAFVETLQ
notes: source: E. coli Rosetta pLysS, purified (glutathione beads, TEV cleavage, SEC); not shown: GST, N-terminal, cleaved; EGFP, N-terminal, kept
As to B5, the binding result in the assay with mCherry-WIPI3 is “binds”.

B6: FUNDC1(1–50aa)-GST (domain or fragment, human, UniProt Q8IVP5 1-50, looked up)
chain: MATRNPPPQDYESDDDSYEVLDLTEYARRHQWWNRVFGHSSGPMVEKYSV
notes: FUNDC1, cytosol-exposed domain, residues 1-50; also called FUNDC1-GST; source: E. coli Rosetta pLysS, purified (glutathione beads, SEC); not shown: GST, C-terminal, kept
As for B6, the binding result in assay [1] is “binds”.

B7: GFP-tagged ATG13 (191–230aa) (peptide, UniProt O75143 191-230, looked up)
chain: INLAFMSTRQFERTPPIMGIIIDHFVDRPYPSSSPMHPCN
notes: source: E. coli Rosetta pLysS, purified (glutathione beads, TEV cleavage, SEC on S75); not shown: GST, N-terminal, cleaved; EGFP, N-terminal, kept
For B7, the binding result with mCherry-WIPI3 is recorded as “binds”.
